Reference: patent US20260240820A1, “METHOD FOR CONTROLLING MEMBRANE POTENTIAL-DEPENDENT ION CHANNEL THROUGH TYPE I TASTE RECEPTORS (T1RS)” (ION CHAT RESEARCH CORPORATE, priority 2022, published 2026)
“Also recorded” adds a separate entry of the source. Like-named read-outs stand apart in the source and are kept apart here.

Test system: Nav1.6
Test: Patch-clamp recording of VGSC current in HEK (Nav1.6) cells
Type: cell-based, human

B1: Thaumatin: sweet-tasting protein binding to the CRD of T1R3 (protein)
chain: ATFEIVNRCSYTVWAAASKGDAALDAGGRQLNSGESWTINVEPGTNGGKIWARTDCYFDDSGSGICKTGDCGGLLRCKRFGRPPTTLAEFSLNQYGKDYIDISNIKGFNVPMDFSPTTRGCRGVRCAADIVGQCPAKLKAPGGGCNDACTVFQTSEYCCTTGKCGPTEYSRFFKRLCPDAFSYVLDKPTTVTCPGSSNYRVTFCPTA
Effect on VGSC current, alone: amplified VGSC currents similarly to Aβ1-42 | Effect on VGSC current when applied after Aβ1-42 (listed as thaumatin): further amplification of VGSC currents was not observed; also recorded: no further amplification | Effect on VGSC current, alone (listed as thaumatin): similarly amplified VGSC currents as Aβ1-42
